B1: Pol30p (PCNA), wild type, of the POL30-0 strain [S. cerevisiae] / Rrm3p-Myc [S. cerevisiae] (parent complex)
chain 1: MLEAKFEEASLFKRIIDGFKDCVQLVNFQCKEDGIIAQAVDDSRVLLVSLEIGVEAFQEYRCDHPVTLGMDLTSLSKILRCGNNTDTLTLIADNTPDSIILLFEDTKKDRIAEYSLKLMDIDADFLKIEELQYDSTLSLPSSEFSKIVRDLSQLSDSINIMITKETIKFVADGDIGSGSVIIKPFVDMEHPETSIKLEMDQPVDLTFGAKYLLDIIKGSSLSDRVGIRLSSEAPALFQFDLKSGFLQFFLAPKFNDEE
chain 2: MFRSHASGNKKQWSKRSSNGSTPAASASGSHAYRQQTLSSFFMGCGKKSAAASKNSTTIIDLESGDEGNRNITAPPRPRLIRNNSSSLFSQSQGSFGDDDPDAEFKKLVDVPRLNSYKKSSRSLSMTSSLHKTASASTTQKTYHFDEDETLREVTSVKSNSRQLSFTSTINIEDSSMKLSTDSERPAKRSKPSMEFQGLKLTVPKKIKPLLRKTVSNMDSMNHRSASSPVVLTMEQERVVNLIVKKRTNVFYTGSAGTGKSVILQTIIRQLSSLYGKESIAITASTGLAAVTIGGSTLHKWSGIGIGNKTIDQLVKKIQSQKDLLAAWRYTKVLIIDEISMVDGNLLDKLEQIARRIRKNDDPFGGIQLVLTGDFFQLPPVAKKDEHNVVKFCFESEMWKRCIQKTILLTKVFRQQDNKLIDILNAIRYGELTVDIAKTIRNLNRDIDYADGIAPTELYATRREVELSNVKKLQSLPGDLYEFKAVDNAPERYQAILDSSLMVEKVVALKEDAQVMMLKNKPDVELVNGSLGKVLFFVTESLVVKMKEIYKIVDDEVVMDMRLVSRVIGNPLLKESKEFRQDLNARPLARLERLKILINYAVKISPHKEKFPYVRWTVGKNKYIHELMVPERFPIDIPRENVGLERTQIPLMLCWALSIHKAQGQTIQRLKVDLRRIFEAGQVYVALSRAVTMDTLQVLNFDPGKIRTNERVKDFYKRLETLK

The assay covers variants of B1. Kind of assay: co-immunoprecipitation, western blot band quantification; α-Myc IP; parent: 2.1; read off a plot. A general note: A western blot detects proteins with antibodies after separation by electrophoresis.
In the case of chain 1 L126A, chain 1 I128A, the response was ~1.8 pixel density fold over input signal.

Values taken from publication PMC10585736 (2023).
